For the test, the target named is VNp-mNeongreen-TEV-etanercept-His6 fusion protein (human). Kind of test: SDS-PAGE without reducing agent and anti-mNeongreen western blot; VNp-mNG-etanercept purified from E. coli, without DTT. In general terms: In western blotting, separated proteins are transferred to a membrane and probed.

Experimental findings from publication PMC10014274 are described below.

In general, stoichiometry N refers to the number of molecules, sites or subunits per partner or assembly.

As for “VNp-mNeongreen-TEV-etanercept-His6 fusion protein (Fc fusion)”, the stoichiometry N amounted to 2.
